The nanobody polyreactivity screen of Harvey et al. (2022)

Test: yeast display, Sf9 membrane polyspecificity reagent, FACS + sequencing; frameworks hold sequencing errors
Outline: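 Using colony PCR, genes from sorted yeast display clones were amplified, then sequenced on MiSeq at 2 × 250 and filtered by CDR length. The clones had been stained with 10% biotinylated, detergent-solubilized Sf9 membrane reagent for 1 hour at 4 °C and sorted by FACS into low and high (top ~1%) gates on anti-HA and streptavidin fluorescence. Polyreactivity labels come from the gate of origin.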

| Sequence | polyreactivity (PSR sort gate) |
| --- | --- |
| QVQLVESGGGLFQAGGSLRLSCAASGLTLYFYVMGWYRQAPGKERELVAAISSTGSTYYADSVKGRFTISRDNAKNTVYLQMNSLKPEDTAVYYCAARYGGHYGAEYYWGQGSQVTVSS | high polyreactivity |
| QVQLVESGGGLFQAGGSLRLSCAASGRIFGAYTMGWYRQAPGKERELVAAISDGGDTYYADSVKGRFTISRDNAKNTVYLQMNSLKPEDTAVYYCAADAPYYAYYWYPSSLGIYGYWGQGTQVTVSS | low polyreactivity |
| QVQLVESGGGLFQAGGSLRLSCAASGRIFGPYAMGWYRQAPGKERELVATITLRGGSTYYADSVKGRFTISRDNAKNTVYLQMNSLKPEDTAVYYCNARYYSLVYRYDYWGQGTQVTVSS | high polyreactivity |
| QVQLVESGGGLFQAGGSLRLSCAASGRIFQHNTMGWYRQAPGKEREFVAAIRRSGGSTYYADSVKGRFTISRDNAKNTVYLQMNSLKPEDTAVFYCAARDYPTGTRRWGGGDSWGQGTQVTVSS | low polyreactivity |
| QVQLVESGGGLFQAGGSLRLSCAASGRIFSCYAMGWYRQAPGKERELVAAITVRGSTYYADSVKGSFTISRDNAKNTVYLQMNSLKPEDTAVYYCAAGGYPGTTYYGYDFWGQVTQVTVSS | low polyreactivity |
| QVQLVESGGGLFQAGGSLRLSCAASGRIFYTNVMGWYRPAPGKERELVAAISTGGGRTYYADSVKGRFTISRDYAKNTVYLQMNSLKPEDTAVYYCAADWRTKGYDSLGQGTQVTVSS | high polyreactivity |
| QVQLVESGGGLFQAGGSLRLSCAASGRTFHGYAMGWYRQAPGKERELVARINWSDGRTYYADSVKGRFTISRDNAKNTVYLQMNSLKPEDTAVYYCAADKTVSYAPAWYYYWGQGTQVTVSS | low polyreactivity |
| QVQLVESGGGLFQAGGSLRLSCAASGRTFKPNTMGWYRQAPGKERELVAAITWRGGSTYYADSVKGRFTISRDNAKNTVYLQMNSLKPEDTAVYYCASARVRTGTGMDYWGQVTQVTVSS | low polyreactivity |
| QVQLVESGGGLFQAGGSLRLSCAASGSIFDVNAMGWYRQAPGKEREFVAAISDSGGSTYYADSVKGRFTMSRDNAKNTVSLPMNSLKPEDTAVYYCNADWSWYNYYDFDYWGQGTQVTVSS | low polyreactivity |
| QVQLVESGGGLFQAGGSLRLSCAASGSIFWGYDMGWYRQPPGKERELGARISYSGGSTSYADSVKGRFTISRDNAKNTVYLQMNSLKPEDTAVYYCAADEGGFWWTYPYDCWGQGTQVSVSS | low polyreactivity |
| QVQLVESGGGLFQAGGSLRLSCAASGSTFPYNAMGGYRQAPGKERELVAAINSGATTYYADSVKGRFTISRDNAKNTVYLQMNSLKPEDTAVYYCAAEGYASSSEYDYWGQGTQVTVSS | low polyreactivity |
| QVQLVESGGGLFQAGGSLRLSCAASGSTSIYNAMGWYRQAPGKERELVAAIDVRGGGTYADSVKGRFTISRDNAKNTVYLQMNSMKPEDTAVYYCNADYARYPNGWFRIVGSGYWGQGTQVTVSS | low polyreactivity |
| QVQLVESGGGLFQAGGSLRLSCAASRLIFPLYAMGWYRKAPWKERELVAANTRGGSTYYADSVKGRLTISSDNANNTVYLQINSLKAEDTAVYDCNDELPVHWSWYDYWGQGTQVTVSS | low polyreactivity |
| QVQLVESGGGLFQAGGSLRLSCAATGITFFRYPMGWYRQAPGKERELVAVITRGGTTYYADSVKGRFTISRDNAKNNAYLQINSLKPEDTAVSYCAAKPYYGYDYWGQGTQVTVSW | high polyreactivity |
| QVQLVESGGGLFQAGGSLRLSCAPSGFIFPKNPMSWYRHAPGKERELVAAISQSGGSTYYADSVKGRFTISRDNAKNTVYLQMKSLKADDTAVYSCAARYYLPNWVGGGEYNYWGQGTQVTVST | high polyreactivity |
| QVQLVESGGGLFQAGGSLRLSCAPSGSIIIRNAMGWYRQAPGKEREWVAVISSSVGRTYYADSVKGRFTISRDTAKNTVYVQMNSLKPEVTAVYYCAARWYSGYGRFDYWGQVTQVTVSS | high polyreactivity |
| QVQLVESGGGLFQAGGSLRLSCASSGSIFLIYAMGWYRQAPGKERELVAAITQRGGSTYYADSVKGRFTISRDNAKISVYLQMESLKPEDTAVYYCNARRYVMRYNRFYYWGQGTQVTVSS | high polyreactivity |
| QVQLVESGGGLFQAGGSLRLSCSASGSIFKRYAMVWYRQAPGKERELVARITNRSGNTYYADSVKGRFTISRDNAKNTVYLQMISLKPEDSAVYYRAATKSLGRYYMYYWGQGTQVTVSS | low polyreactivity |
| QVQLVESGGGLFQAGVSLRISCAASGFIFDRNAMGWYRQAPGKERELVAVINSGGSTYYADSVKGRFTISRDNAKNTVYLQMNCLKPEDTAVYYCAAVRSRYGREYYYWGQGTQVTVSS | high polyreactivity |
| QVQLVESGGGLFQEGGSLRISCAPSGSTFGGYVMGWYRQAPGKDRELVAAIRRVGRTYYADSVKGRFTISRDNAKNTVYLQINSLKAEVTAVYYFAADWAGWEGYRMDYWGQGTQVTVSS | low polyreactivity |
| QVQLVESGGGLFQEGGSLRLSCAASGFTFLYYDMGWYRQAPGKERELVAAINSSGGGTYYADSVKGRFTISRDNAKNTVYLQMNSLKPEDTAVYYCAVSWSDGYDYWGQGTQVTVSS | high polyreactivity |
| QVQLVESGGGLFQSGGSLRLTSAASGSTFAYKAMGWYRQAPGKEREFVAAITIGSTYADSVKGRFTISRDNAKNTVYLQMNSLKPEDTAVYYCAVRRPRRNYNYPYDYWGQGTQVTVSS | low polyreactivity |

| Sequence | polyreactivity (PSR sort gate) |
| --- | --- |
| QVQLVESGGGLGQAAGSLRLSCAASGHIFGPYAMGWYSQAPGKERELVAAITSGGTTYYADSVKGRFTISRDNAKNTVYLQMNSLKPEDTAVYYCAAKFELTRYSSPFFWYDSWGQGTKVTVSS | high polyreactivity |
| QVQLVESGGGLGQAGGSLRLICAASGFIFRYNAMGWYRQAPGKERELVAGISRSGGRTYYADSVKGRFTISRDNAKNTVYLQMNSLKPEDTAVYYCNAEWVGGAGGYYYWGQGTQVTVSS | low polyreactivity |
| QVQLVESGGGLGQAGGSLRLSCAASGFTFRYYAMGWNRQAPGKERELVAAISASGGSTYYADSVKGRFTISRDNAKNTVYLQMNSLKPEDTAVYYCARYYAKMDYWGQGTQVTVSS | high polyreactivity |
| QVQLVESGGGLGQAGGSLRLSCAASGFTFVFYAMGWYRQAPGKERELVAGISRTGGSTYYADSVKGRFTISRDNAKNTVYLQMNSLKPEDTAVYYCAAVSRGFGSRGYDYWGQGTQVTVSS | high polyreactivity |
| QVQLVESGGGLGQAGGSLRLSCAASGLIFGLYAMGWYRQAPGKERELVAAISYRTDSTYADSVKGRFTISRDNAKNTVYLQMNSLKPEDTAVYYCAADLRVSVRYYYWGQGTQVTVSS | low polyreactivity |
| QVQLVESGGGLGQAGGSLRLSCAASGRIFGVYGMGWYRQAPGNDRELVAAITLAGRTNYADSVKGRFTISRDNAKNTVYLQMNSLKPQDTAVYYCAAEKRKLFQGVARYRYEDWGQGTQVTVSS | low polyreactivity |
| QVQLVESGGGLGQAGGSLRLSCAASGRIFRYNAMGWYRQAPGKERELVAAITGSGGSTYYADSVKGRFTISRDNAKNTVYLQMNSLKPEDTAVYYCNTYTYYSRMDYWGQGTQVTVSS | high polyreactivity |
| QVQLVESGGGLGQAGGSLRLSCAASGRIFYSNVMGWYRQAHGKEREFVAAISGRTGGTYYADSVKGRFTISRDNAKNTVYLQMNSLKPEDTAVYYCAARVIYYYGSGPYDYWGQGTQVTVSS | low polyreactivity |
| QVQLVESGGGLGQAGGSLRLSCAASGRTFFRYAMGWYRQAPGKERELVAAISSRGGSTYYADSVKGRFTISRDNAKNTVYLQMNSLKPEDTAVYYCNAAAFINFILYDYWGQGTQVTVSS | high polyreactivity |
| QVQLVESGGGLGQAGGSLRLSCAASGRTVYYNGMGWYRPAPGKEREVVAAITSGGTTSYADSVKGRFTISRDNAKNTVYLQMISLKPEETAVYYSNADYWAVNYDYWGQGTQVTVSS | low polyreactivity |
| QVQLVESGGGLGQAGGSLRLSCAASGSIFWGNAMGWYRQAPGKESELVACIRNSGTSTYYADSVKWRFTISRDNAKNTVYLKMNSLKPVDTAVYYCAAADGRQYSRYYWRGHDYWGQGTQVTVSS | low polyreactivity |
| QVQLVESGGGLGQAGGSLRLSCAASGSIFYYYAMGWYRQAPGKERELVASITSSGGTTSYADSVKGRFTISRDNAKNTVNLQMNSLKPEDTEVYYGNAQVYRYRIGYDYWGQGTQVTVSS | low polyreactivity |
| QVQLVESGGGLGQAGGSLRLSCAASGSIIKPYAMGWYRQAPGKERELVAAIRSSGGRTNYADSVKGRFTISRDNAKNSVYFQMNSLKPEDTGVYYCAAGYVSYWYYRYDYWGQGTQVTVSS | high polyreactivity |
| QVQLVESGGGLGQAGGSLRLSCAASGVSNAMGWYRQAPGKERELVAAISRSGGSTYYADSVKGRFTISRDNAKNTVYLQMNRLKPEDTAVYYCNARPYWIDGSGLFPYDYWGQGSQVTVSS | high polyreactivity |
| QVQLVESGGGLGQAGGSLRLSCAPSGFIFTLYAMGWYRQAPGKERELVAAIDTSVASTYYADSVKGRFTLSRENAKYTVYLQMNSLKPEDTAVYYCNADGASYLILSYYQPYDYWGQGTQVTVSS | low polyreactivity |
| QVQLVESGGGLGQAGGSLRLSCASSGFTFVPYAMVWYSPAPGKERELVAAIDFDDATTYYADSVKGRFTISRDNAKNTVYLQMNSMKPEDTALYYCAADGFYAPDDAPFYYWGQGTQVTVSS | high polyreactivity |
| QVQLVESGGGLGQAGGSLRLSCTASGRIFPYYAMGWYRQAPGKERELVAALSGRGGRTYYADSVKGRFTISRDNAKNTVYLQMNSLNPEDTAVYYCNARVQAVHYGYWGQGTQVTVSS | high polyreactivity |
| QVQLVESGGGLGQAGGSLRLTCAASGSIFRSYAMGWYRQAPGKESEFVATISSSTGSTYYADSVKGRFSISRDNAKNTVYLPMNSLKPEFTAVYYCAAVQPVKSSSGYHFWYYWGQGTQVTVSS | high polyreactivity |
| QVQLVESGGGLGQAGGSLRLTCAASGSTFDYYAMGWYRPAPRKERELVAAISSSGSSTYYADSVKGRFTISRDIAKNTVYLQMNSLNPEDTAVYFCAIGTNYRDDYWGQGTQVTVSS | low polyreactivity |
| QVQLVESGGGLGQAGGSLSLSCAAYGRIYSRYAMGWYRQAPGKERELVAAINSGGITNYADSVKGRFTISRDNAKNTVYLQMNSLNPEDTAVYYCAAQARRSWGKYYYWGQGTQVPVSS | high polyreactivity |
| QVQLVESGGGLIQAGGSLRLSCAASGIIFYPYTMGWYRPAPGKERELVAAIRQSGTSTYYADSVKGRFTISRDNAKKTVYFQMNSLKPEDTAVYYCNADDHIYWRKGYDYWGQGTQVTVSS | low polyreactivity |
